Laboratory results reported in publication PMC11098746 (2024).

Legend:
Test in all cases: AVEXIS screen signal:noise (double-corrected)
ADP368 = molecular target: T1, ADP368
T1 chain: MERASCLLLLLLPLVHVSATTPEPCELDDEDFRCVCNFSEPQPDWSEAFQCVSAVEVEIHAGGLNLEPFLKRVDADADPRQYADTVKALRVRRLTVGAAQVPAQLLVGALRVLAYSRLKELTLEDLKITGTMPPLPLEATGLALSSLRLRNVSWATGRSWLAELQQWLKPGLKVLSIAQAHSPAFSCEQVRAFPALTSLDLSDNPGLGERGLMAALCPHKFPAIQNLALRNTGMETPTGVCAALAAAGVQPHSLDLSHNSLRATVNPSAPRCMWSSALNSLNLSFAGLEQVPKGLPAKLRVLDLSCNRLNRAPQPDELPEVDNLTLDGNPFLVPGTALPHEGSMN

ADP315 = molecular target: T2, ADP315
T2 chain: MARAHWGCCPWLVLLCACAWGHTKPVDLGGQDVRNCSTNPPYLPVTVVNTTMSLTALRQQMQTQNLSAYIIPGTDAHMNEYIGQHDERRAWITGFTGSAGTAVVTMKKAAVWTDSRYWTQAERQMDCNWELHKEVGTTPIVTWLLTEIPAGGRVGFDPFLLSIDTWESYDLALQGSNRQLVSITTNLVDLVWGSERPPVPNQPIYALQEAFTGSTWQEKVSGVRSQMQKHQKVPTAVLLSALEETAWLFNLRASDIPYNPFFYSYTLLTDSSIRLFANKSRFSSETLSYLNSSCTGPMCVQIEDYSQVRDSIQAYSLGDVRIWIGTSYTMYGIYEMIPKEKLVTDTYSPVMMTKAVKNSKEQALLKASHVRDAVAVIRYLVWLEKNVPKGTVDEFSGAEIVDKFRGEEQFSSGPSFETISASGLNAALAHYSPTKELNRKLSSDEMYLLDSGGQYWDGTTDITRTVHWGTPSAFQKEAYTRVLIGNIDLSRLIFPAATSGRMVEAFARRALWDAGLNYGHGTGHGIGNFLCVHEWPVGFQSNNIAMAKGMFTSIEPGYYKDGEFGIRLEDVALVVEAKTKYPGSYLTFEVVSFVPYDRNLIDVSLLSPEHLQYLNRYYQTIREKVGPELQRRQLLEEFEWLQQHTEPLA

ADP323 = molecular target: ADP323
ADP366 = molecular target: T3, ADP366
T3 chain: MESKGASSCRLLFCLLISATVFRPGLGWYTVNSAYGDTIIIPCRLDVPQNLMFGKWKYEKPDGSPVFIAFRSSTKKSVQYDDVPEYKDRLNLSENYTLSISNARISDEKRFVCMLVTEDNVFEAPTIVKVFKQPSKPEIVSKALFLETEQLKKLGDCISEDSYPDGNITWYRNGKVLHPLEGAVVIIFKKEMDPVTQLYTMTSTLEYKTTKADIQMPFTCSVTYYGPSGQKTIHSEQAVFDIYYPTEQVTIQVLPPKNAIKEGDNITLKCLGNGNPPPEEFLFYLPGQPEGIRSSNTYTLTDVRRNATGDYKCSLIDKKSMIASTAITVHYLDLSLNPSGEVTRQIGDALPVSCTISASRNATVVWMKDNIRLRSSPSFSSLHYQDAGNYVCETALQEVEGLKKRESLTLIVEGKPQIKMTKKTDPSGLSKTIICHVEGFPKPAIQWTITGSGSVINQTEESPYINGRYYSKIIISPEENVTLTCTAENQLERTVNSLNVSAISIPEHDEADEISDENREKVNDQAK

ADP158 = molecular target: ADP158
ADP390 = molecular target: ADP390
ADP144 = molecular target: T4, ADP144
T4 chain: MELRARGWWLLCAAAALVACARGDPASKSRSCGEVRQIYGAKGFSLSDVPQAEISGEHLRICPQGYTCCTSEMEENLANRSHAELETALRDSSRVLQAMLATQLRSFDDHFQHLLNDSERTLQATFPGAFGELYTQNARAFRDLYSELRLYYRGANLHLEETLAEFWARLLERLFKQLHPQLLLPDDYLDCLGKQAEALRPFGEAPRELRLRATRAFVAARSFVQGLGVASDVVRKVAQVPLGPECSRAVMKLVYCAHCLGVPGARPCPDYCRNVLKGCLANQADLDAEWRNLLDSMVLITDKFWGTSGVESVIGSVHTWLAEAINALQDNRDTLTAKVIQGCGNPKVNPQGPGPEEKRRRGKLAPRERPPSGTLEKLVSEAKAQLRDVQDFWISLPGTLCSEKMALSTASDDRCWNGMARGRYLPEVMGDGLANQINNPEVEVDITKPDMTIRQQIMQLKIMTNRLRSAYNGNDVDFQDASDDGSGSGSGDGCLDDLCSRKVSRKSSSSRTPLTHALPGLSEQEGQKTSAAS

ADP103 = molecular target: T5, ADP103
T5 chain: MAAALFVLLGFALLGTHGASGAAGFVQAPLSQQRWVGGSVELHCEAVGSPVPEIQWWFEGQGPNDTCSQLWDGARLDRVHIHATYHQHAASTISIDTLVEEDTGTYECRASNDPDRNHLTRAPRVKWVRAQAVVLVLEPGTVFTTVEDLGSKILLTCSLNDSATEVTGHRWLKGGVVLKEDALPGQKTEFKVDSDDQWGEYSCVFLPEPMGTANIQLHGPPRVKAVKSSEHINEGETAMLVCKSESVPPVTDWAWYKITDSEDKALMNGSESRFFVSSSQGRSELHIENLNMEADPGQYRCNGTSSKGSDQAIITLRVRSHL

B1: ADP247 (protein)
chain: GIISGRINIAAEFHINIFVKDYFKKKKLTFVNFVSLCPKGFNIENNKCIPCPIGLYYSNSKSINQCIPCENYRKHSTTLYNSAKSKTECLCKPGYFLKDKRCVKCVAGFYKDQIGNFKCQGTCENTKMSIEVGAKNYEELKCTCKDGYFTEKKKKECIPCPFGNYCIYNPKVKYKADIIRCKNNKLTLHRGSKSPNDCLCSQGYYHDYKMDECELCNYDQYKSHISNDPCVPFISKSLVNQEYLINEPYFQYTNIYIKQTSNIIFAPKKGSKMFHEATLCETGYSYSMNKAICSICRYNNYCLGLDHSSIICPKNSITIKLKSVSALDCLCIKGYGRIIINTNQAFTISCIPCPYNTFQPHHSYGKCIPCPPHTFTKITGATSITECIPKMGYYNIAFEYIYEYSKQQMLNSIPHFIQYYHYFLKNQYEHFA
modifications: bait human Fc-tagged dimer; N-glycosylation sequons mutated in Plasmodium baits
Question: Which binding score (ADP368) does the source give for B1 here?
Answer: Its binding score is 5.45.

Question: What about the binding score (ADP315) of the same binder?
Answer: The binding score was 5.78.

Question: And the binding score (ADP323)?
Answer: Its binding score is 5.73.

Question: What about the binding score (ADP366) of the same binder?
Answer: Its binding score is 5.26.

B2: ADP167 (protein)
chain: EFKRKQKVEINSLQTNKNNDNIREEKIKGDVESQPDVDGDTCVIFSSSEGNSRNCWCPRGYILCSEEDVLDVQGKLNEIKNKHERSLVTPLWMKRLCDNSNDVGFKSMSVVIDYELAVLCKDGSNKDYADFEIIGASGYITGEEMIEEQKRNPWYVPRKCTVNNFYLCRKVENDNVNCAYTPWSDWSACKNNAQKRYRKVRRSNQNNENFCLWNDKIVPRNIMEQTRSC
modifications: bait human Fc-tagged dimer; N-glycosylation sequons mutated in Plasmodium baits
Question: Which binding score (ADP158) does the source give for B2 here?
Answer: Its binding score is 19.1.

B3: ADP253 (protein)
chain: ANAFYVDNGQEMLIKEKEHYSSDSEHHKEESASIGNLNVFFPAENYHFSTYMGFDRRSFLPSNEIELEKMIGANFANEVKNYCSRQNVAQKIGDYLNIAFEYSRALEELRSEMILDFNKRKHLTNNADDTILHMIENAEKRKNDPNYKEAYENKDYANNANIFMNEYSNPLSTKYNKILKEYLCHLFVNNPGTKPLERLYYNSLALGELVEPIRNKFKSLASSTIDFNYEIHMASASNIYLLAHFLVLSLAYLSYNEYFTTGTKSFYSLPTILTANSDNSFFMLNEMCNIHYNPNKNFKKDITFIPIESRPKRTTTFYGERRLTCDLLELVLNAIMLININEINNVFSNNNVDGYENSLSFSHNAIRIFSKVCPKINNDNVLKCEFEESSLYNPKIIKNDASEKSSQKNLKKAFDLLRTYAEIEGHSAEGSTSPYYVSLILDDMKYNDFYKYTLWYEPRELIYGDIRGMQMKKKKKTKYIYNDFMKKSTQLKKKLIKNDLKYNLKSKGLVFLYAMIDKYGSILNKAQKAKVQFLNSASSIRYYLYLNKVIFKSAKTYLDIMKRVLEELQTSTNTPLKFLVRGNYIENINNIARNDNMFYANLFVLTALSRRDPVKDYYNDKRKMLSATLAEKFANSASMLIPHKLRKLVVSMKKGLLKKKLLTSLAKVKLLQHIPAHMLENIASSIRFTTHTIATMQIIQNAKYMSKHNFAQYDSKGMLARQIFTKGGFAEYADNLMAKWFSKGFEEYKREQIENFKMENSIDSELKDSEREDENDASEESAKKKLQDLQLEEREKMKKENSLLFNQADKWDQFINKELVRALGLWLEFNDNPANAASFVYKVVEDSKHLLENNIDNNIIFSRTVKPTKQTAFRRFFNKILSLGNMLLRKPSFRVEHALWFGATIDIKKAFILLEKVSELHKMLNNQDESWLINEAFIEIVDHVVDLSTYKHVREPFGVARNPGMMAINPKYAELSHENRLRELQNSMCADHCSSVWKVISSFALHHLKNPDSLHTYESKFSKNSFGNKIDDKDFVHNFKMILGGDAVLHYFDNLLPKTMKKDLKAMKYGVSLTSAYSLKLTKIIFSQMQLPYLSQMFYMQAPYFGHFIGKWQKKRQQSRLKEIMSFMTLGSLSAYTLFSAMDITQQAKDIGAGPVASCFTTRMSPPQQICLNSVVNAALSTSTQSAMKCVFSV
modifications: bait human Fc-tagged dimer; N-glycosylation sequons mutated in Plasmodium baits
Question: B3 was tested. Which binding score (ADP390) did it give?
Answer: The binding score was 7.2.

B4: ADP180 (protein)
chain: RGNQISKCVFYDKRNKDLKQVFYVPTNDVNMYKETIRKLLSREISLLEEPLNENSDSHNMANKKNVANFEEIKKNDENNNRKRKEMEEKLKYIEKYRNYAKGVLKNVEFKCENVDDLKSKVKCNLCVYTEIVNNKHIRQGQIIQIFMNECMYGFYYYDNINQYTQNNEYNNKALKDYNSAQKLDDIYFNIAKDISEGNVNGINFFKQQSSKYHPVCYVTE
modifications: bait human Fc-tagged dimer; N-glycosylation sequons mutated in Plasmodium baits
Question: Which binding score (ADP144) does the source give for B4 here?
Answer: The binding score was 20.

Question: And the binding score (ADP103)?
Answer: The binding score was 9.97.
